Read-outs that look alike come from different tables or passages of the source.

In assay [1] the target is T1, CD16a on NK92 (CD16+) cells (human, UniProt P08637 17-254).
T1 construct: whole, on cells; also called NK92 cells (CD16a+); haNK92 cells (CD16a+)
Put plainly: flow cytometry, NK92 cells (CD16a+). For orientation: A flow cytometer gives signals particle by particle.

For assay [2], the target named is T2, CD16b on neutrophils (human, UniProt O75015 17-200).
T2 construct: whole, on cells; also called neutrophils (CD16b+)
Put plainly: flow cytometry, neutrophils (CD16b+).

Assay [3] concerns the target T2, CD16b on neutrophils. Put plainly: flow cytometry, neutrophils (CD16b+); value of the drawn table.
Assay [4] deals with T2, CD16b on neutrophils. Put plainly: flow cytometry, neutrophils (CD16b+); value at the PE-H+ gate inside the histogram.
Assay [5] deals with HER2 on the surface of HER2+ cancer cells (BT474, SKOV-3) (human) (UniProt P04626). Put plainly: flow cytometry on BT-474 cells (HER2+).
Assay [6] shares this target. Put plainly: flow cytometry on SKOV-3 cells (HER2+).
The target of assay [7] is T2, CD16b on neutrophils. Put plainly: flow cytometry, neutrophils (CD16b+); value at the PE-H- gate inside the histogram.
The target in a further assay is T3, CD32b on B cells (UniProt P31994 43-310).
T3 construct: whole, on cells; also called B cells (CD32b+)
T3 sequence (looked up): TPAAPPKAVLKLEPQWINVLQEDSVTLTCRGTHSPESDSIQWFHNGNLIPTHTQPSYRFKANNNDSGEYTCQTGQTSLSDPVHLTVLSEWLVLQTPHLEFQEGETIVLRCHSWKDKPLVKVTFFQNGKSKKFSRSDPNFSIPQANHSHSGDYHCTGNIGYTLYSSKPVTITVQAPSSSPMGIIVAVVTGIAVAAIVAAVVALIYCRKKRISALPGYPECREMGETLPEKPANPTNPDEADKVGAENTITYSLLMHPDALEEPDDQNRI
Put plainly: flow cytometry on B cells (CD32b+).

For assay [8], the target named is T2, CD16b on neutrophils. Put plainly: flow cytometry on neutrophils (CD16b+). Here is the method: For flow cytometry, haNK92 cells (CD16a+) and Neutrophils (CD16b⁺) were used. […] The human Neutrophil cells were purchased from HemaCare and cultured according to the manufacturer's protocol. First, both cell lines were harvested and washed once using DPBS supplemented with 2% FBS (2% DPBS-FBS). For each sample, 0.5×10⁶ cells were stained with antibody on ice for 60 min. In this experiment, 3G8 monoclonal antibody was used as a positive control. This antibody binds to both CD16a and CD16b. Following washing three times, the secondary antibody, anti-Histag antibody FITC labeled, was added. After washing, the samples were run on Cytoflex using FL2 channel.
In this experiment, NK92 cells (CD16a⁺), neutrophils (CD16b⁺), and B cells (CD32b⁺) were used as cell controls. 3G8 (anti-CD16a/b) and AT10 (anti-CD32a/b) mAbs were used as antibody controls.

In the next assay the target is T4, biotinylated CD32b (UniProt P31994 46-217, biotinylated).
T4 construct: also called CD32b antigen
T4 sequence (looked up): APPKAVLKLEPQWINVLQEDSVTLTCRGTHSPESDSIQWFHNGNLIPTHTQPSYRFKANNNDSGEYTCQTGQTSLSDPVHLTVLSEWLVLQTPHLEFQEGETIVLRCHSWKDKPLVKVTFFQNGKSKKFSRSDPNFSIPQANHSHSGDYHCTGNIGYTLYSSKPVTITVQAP
Put plainly: ELISA, biotinylated antigen on streptavidin plate. As for the experimental part: The purified VHHs were subjected to functional analysis using ELISA and flow cytometry. For ELISA, 50 μL of biotinylated CD16a, CD16b-NA1, CD16b-NA2, and CD32b were added to the streptavidin-coated plate and incubated for 45 min at RT. Following washing, the 100 μL of 100 nM purified VHHs were added and incubated at RT for 1 h. Next, 100 μL anti-HA tag HRP conjugated secondary antibody was added. Finally, the substrate was added for color development, and the plate was read using OD of 450 nm.
CD32b and skim milk were also used as antigen controls. 3G8 and eBioCB16, which are anti-CD16a/b mAbs were used as antibody controls. […] CD32b is a receptor that is expressed on B cells and responsible for inhibiting B cell activation. One of the disadvantages of mAb-based therapies is the binding of their Fc region to CD32b leading to the diminished activity of humoral immunity.
In general terms: ELISA stands for enzyme-linked immunosorbent assay.

Assay [9] addresses T5, Biotinylated Human Fc gamma RIIIA/CD16a (F176) Protein, Avitag, His Tag (Acrobiosystems CDA-H82E8) (human, UniProt P08637 17-208, biotinylated (Avitag)).
T5 construct: also called biotinylated CD16a; CD16a antigen
Put plainly: BLI (Octet), biotinylated CD16a on streptavidin sensor, VHH 1.875-60 nM. On the technique in general: Biolayer interferometry detects binding as a change in optical thickness at a sensor tip.

The target of assay [10] is T6, Biotinylated Human Fc gamma RIIIB/CD16b (NA1) Protein, His, Avitag (Acrobiosystems CDB-H82E4) (human, UniProt O75015 17-200, biotinylated (Avitag)).
T6 construct: NA1 allele; also called CD16b-NAI
Put plainly: BLI (Octet), biotinylated CD16b-NA1 on streptavidin sensor, VHH 1.875-60 nM. As for the experimental part: (§1) An Octet® Streptavidin (SA) Biosensor was soaked for at least 10 min in DPBS supplemented with 0.1% Casein, biotinylated CD16a, CD16b-NA1, CD16b-NA2, and HER2 antigens were loaded onto the streptavidin (SA) biosensor until 1 nm shift was reached. Next, the sensor was dipped into the washing buffer (DPBS+0.05% Tween 20+0.1% Casein) for 2 min to reach the baseline. […] Then, in the dissociation step, sensors were dipped into the washing buffer for 5 min to acquire data (Table 5). The data were then analyzed using Octet Data Analysis HT 11.1 software. The sensorgrams were subtracted from the reference and fitted into 1:1 binding model for data analysis. Finally, the affinity and kinetics were analyzed using “Association and Dissociation”.

Assay [11] concerns the target T1, CD16a on NK92 (CD16+) cells. Put plainly: flow cytometry, fixed haNK92 (CD16+) cells, tenfold dilutions, anti-histag-FITC. As for the experimental part: First, CD16a+NK92 was harvested and washed once using Dulbecco's phosphate-buffered saline (DPBS) supplemented with 2% FBS (2% DPBS-FBS). Next, all the cells were fixed using 3.7% paraformaldehyde for 20 min at RT, followed by washing twice. […] Following washing three times, the secondary antibody, anti-Histag antibody FITC labeled, was added. After washing, the samples were run on Cytoflex using FL1 channel.

Assay [12] has as its target T5, Biotinylated Human Fc gamma RIIIA/CD16a …. Put plainly: ELISA, biotinylated CD16a on streptavidin plate, tenfold dilutions 0-1000 nM, anti-cMyc-HRP. As for the experimental part:
For ELISA, 50 μL of biotinylated CD16a was added to the streptavidin-coated plate and incubated for 45 min at RT. […] Next, 100 μl anti-cMyc tag HRP conjugated secondary antibody (1:10,000 dilutions) was added. Finally, after washing, the substrate was added for color development, and the plate was read using OD of 450 nm.

Assay [13] shares this target. Put plainly: BLI (Octet), biotinylated CD16a on streptavidin sensor, VHH 1.875-60 nM. Here is the method: as §1
This is another data set of the same source.

T2 sequence (O75015 17-200): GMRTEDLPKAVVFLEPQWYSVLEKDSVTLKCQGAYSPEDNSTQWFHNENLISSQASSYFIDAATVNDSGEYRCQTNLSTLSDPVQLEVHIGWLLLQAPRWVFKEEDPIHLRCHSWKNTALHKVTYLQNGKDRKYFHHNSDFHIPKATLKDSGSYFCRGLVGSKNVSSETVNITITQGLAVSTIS
T6 sequence (O75015 other isoform, or with tags, fused parts or gaps limits assumed): as the sequence (O75015 17-200) above, with S20R, N66D, I90V counted along it
T1 sequence (P08637 17-254 F176V): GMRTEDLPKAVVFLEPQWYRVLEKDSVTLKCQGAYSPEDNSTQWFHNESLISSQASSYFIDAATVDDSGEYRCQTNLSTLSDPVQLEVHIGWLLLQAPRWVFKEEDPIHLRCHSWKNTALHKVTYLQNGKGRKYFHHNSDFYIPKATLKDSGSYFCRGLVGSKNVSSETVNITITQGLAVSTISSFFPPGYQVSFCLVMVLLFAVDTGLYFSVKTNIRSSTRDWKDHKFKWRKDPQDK
T5 sequence (P08637 17-208 limits assumed): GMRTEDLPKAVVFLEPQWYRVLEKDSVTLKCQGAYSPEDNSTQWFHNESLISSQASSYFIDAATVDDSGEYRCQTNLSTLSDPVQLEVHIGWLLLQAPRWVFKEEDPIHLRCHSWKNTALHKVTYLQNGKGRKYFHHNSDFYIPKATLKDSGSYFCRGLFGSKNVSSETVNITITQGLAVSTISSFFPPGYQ

In [1], “CD16 Monoclonal Antibody (3G8), Functional Grade, eBioscience” came in with an FITC+ of 82.2%, an FITC- of 17.8% and an MFI of 88200. In the assay with CD16b on neutrophils [2], this molecule registered an MFI of 18000 and a PE- of 38.1%. For the same molecule, the PE+ with CD16b on neutrophils [3] was found to be 61.1%. Moreover, in the assay with CD16b on neutrophils [4], the PE+ was determined as 61.9%.
For Isotype (antibody), in [5], the FITC+ (%) came to 0.45%, the FITC- (%) was 99.6% and the Mean (MFI) is 935. In assay [6], this molecule came in with an FITC+ (%) of 0.97%, an FITC- (%) of 99% and a Mean (MFI) of 915. Besides, in assay [1], the FITC+ turned out to be 0.71%, the FITC- came to 99.3% and the MFI was 25000. In the assay with CD16b on neutrophils [2], this molecule gave an MFI of 867 and a PE+ of 4.42%. Further, in the assay with CD16b on neutrophils [3], the PE- worked out at 90.6%. This molecule displayed a PE- with CD16b on neutrophils [7] of 95.6%.

B1: C1 anti-CD16a VHH (VHH)
VHH: QVQLQESGGGLVQAGGSLRLSCAASGRTFRLYRMGWFRQAPGKEREFVGSIKMIDGSTLYGDPVKGRFTISRDNTKFMAYLQMNSLKPEDTAVYYCASVSRVTGSYDSWGQGTQVTVSSYPYDVPDYAHHHHHHHH
notes: also called C1 clone; C1 VHH
As a reminder, the Kd is a measure of binding affinity in units of concentration. Low values mean tighter binding, high ones weaker binding. Usually koff stands for a measure of how fast the partners let go of each other. A lower koff goes with slow dissociation. The kon is the second-order rate constant of association. Broadly, the EC50 (read off the curve) is the concentration needed to bring the measured effect to its halfway point. The low end stands for an effect from little substance, the high end for a need for much substance. For the molecule B1, the values for the binding result with CD32b on B cells, with CD16b on neutrophils [8] and with biotinylated CD32b were “no binding”, “no binding” and “no binding (tested: 100 nM)”, respectively. Further, the figures for the Kd in assay [9] and in assay [10] were 1.73 nM and 119 nM, respectively. Also, the koff was 0.000479 s⁻¹ in [9] and 0.0255 s⁻¹ in assay [10]. Besides, the figures for the kon in [9] and in assay [10] were 277000 M⁻¹ s⁻¹ and 213000 M⁻¹ s⁻¹, respectively. Further, the results for the “EC50 (read off the curve)” value in assay [11] and in assay [12] were roughly 1 nM and roughly 0.3 nM, respectively.

B2: E3 anti-CD16a VHH (VHH)
VHH: QVQLQESGGGLVQAGGSARLSCAASGRTFRLYRMGWFRQAPGKEREFVASIKMIDGSSLFGDPVKGRFTISRDNTKFMVYLQMNSLKPEDTAVYYCASVSRNTGSWDSWGQGTQVTVSSYPYDVPDYAHHHHHHHH
notes: also called E3 clone; E3 VHH
With B2, the binding result with CD16b on neutrophils [8] is on record as “no binding”. Also, in the assay with biotinylated CD32b, the binding result is “no binding (tested: 100 nM)”. In [13], this molecule gave a Kd of 0.579 nM, a koff of 0.000294 s⁻¹ and a kon of 505000 M⁻¹ s⁻¹. Moreover, in [10], the affinity, expressed as Kd, was 31.7 nM; the koff amounted to 0.0131 s⁻¹; the kon is 412000 M⁻¹ s⁻¹.

These data come from patent US20250340649A1 (RUTGERS THE STATE UNIVERSITY OF NEW JERSEY, published 2025).
